This note sets out measurements from publication PMC3760334.

Assay [1] concerns the target signal recognition particle (SRP), fluorescein-labeled at C421 (E. coli) (UniProt P0AGD7). Put plainly: fluorescence polarisation. (In general: In fluorescence polarisation assays a small probe gives low polarisation when free and higher when bound to something large.)
Assay [2] deals with RNC_(1A9L) bound to donor-labeled SRP (E. coli | not stated) (UniProt P0AGD7). Put plainly: FRET or BRET. Background: BRET reads energy transfer from a luciferase to a nearby fluorophore.
The target in assay [3] is RNC_(2A8L) bound to donor-labeled SRP (E. coli | not stated) (UniProt P0AGD7). The assay is described as follows: FRET or BRET.
Assay [4] addresses RNC_(luciferase) bound to donor-labeled SRP (E. coli | firefly) (UniProt P0AGD7). Put plainly: FRET or BRET.
The target of assay [5] is RNC_(EspP) bound to donor-labeled SRP (E. coli) (UniProt P0AGD7). Put plainly: FRET or BRET.

pKd: −log10 of the molar value.

In assay [1], “RNC_(EspP): stalled ribosome-nascent chain complex with the signal sequence of EspP” had a pKd of 7.87.
Consider “RNC_(phoA): stalled ribosome-nascent chain complex with the signal sequence of alkaline phosphatase (phoA)”, for which the pKd in assay [1] was 6.97. Against the preceding substance, the pKd is 0.90 log units lower.
Same read-out and setting: then “RNC_(luciferase): stalled ribosome-nascent chain complex with a nascent chain of firefly luciferase (from UniProt P08659 1-550)”, with 6.89.
“SRP receptor (SR), acceptor-labeled (from UniProt P10121 1-497)”: the figures for the kon in assay [2] and in assay [3] were 9.9e+06 M⁻¹ s⁻¹ and 8.8e+06 M⁻¹ s⁻¹, respectively. Besides, the pKd is 5.69 in assay [4] and 6.51 in assay [5].

In general, pKd refers to the Kd on a negative log10 scale, so that one unit is a factor of ten. A lower pKd goes with a large Kd. The kon is a measure of how fast the partners come together. Read a high kon as faster complex formation.
